Test results: publication PMC7757244

The substances below were run against Mut FcγRIIIa (human) (UniProt P08637) (assay: SPR).
Chain of UniProt P08637 (P08637 17-254): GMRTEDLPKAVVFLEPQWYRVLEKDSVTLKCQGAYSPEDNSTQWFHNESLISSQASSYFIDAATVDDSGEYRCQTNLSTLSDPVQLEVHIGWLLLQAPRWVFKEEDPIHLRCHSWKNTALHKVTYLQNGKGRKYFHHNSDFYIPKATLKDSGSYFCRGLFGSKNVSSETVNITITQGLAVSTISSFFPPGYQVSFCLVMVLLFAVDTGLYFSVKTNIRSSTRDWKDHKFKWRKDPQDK

| Kd [nM] | koff [s⁻¹] | kon [M⁻¹ s⁻¹] | Substance |
| --- | --- | --- | --- |
| 1380 | 0.0544 | 39600 | Expi293-Rituximab (antibody) |
| 1950 | 0.0583 | – | Expi293-Trastuzumab (antibody) |
| 2030 | 0.0803 | 39900 | ExpiCHO-Rituximab (antibody) |
| 2520 | 0.0893 | 36200 | ExpiCHO-Trastuzumab (antibody) |
